Results: US20230002466A1 (ELPIS BIOPHARMACEUTICALS, published 2023)
Changes are numbered by the printed parent chain.

T1: human IL2Rα (human, UniProt P01589 22-213, limits assumed)
T1 construct: also called IL2α; CD25
T1 sequence (looked up): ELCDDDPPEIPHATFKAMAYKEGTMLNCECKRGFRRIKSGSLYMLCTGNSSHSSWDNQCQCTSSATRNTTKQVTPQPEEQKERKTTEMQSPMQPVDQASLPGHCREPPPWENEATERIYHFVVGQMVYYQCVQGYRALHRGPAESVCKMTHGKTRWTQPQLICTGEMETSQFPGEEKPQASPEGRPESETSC

T2: human IL2Rβ Fc fusion protein (human, UniProt P14784 27-239)
T2 construct: also called Recombinant Fc-tagged human IL2Rβ; not shown: Fc
T2 sequence (looked up): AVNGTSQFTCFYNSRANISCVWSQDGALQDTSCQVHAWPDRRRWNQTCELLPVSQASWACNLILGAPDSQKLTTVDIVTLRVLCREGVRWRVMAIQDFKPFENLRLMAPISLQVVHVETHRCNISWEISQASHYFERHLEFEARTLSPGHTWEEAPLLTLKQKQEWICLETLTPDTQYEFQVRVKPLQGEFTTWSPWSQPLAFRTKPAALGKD

T3: human IL2Rα Fc fusion protein (human, UniProt P01589 22-213, limits assumed)
T3 construct: also called Recombinant Fc-tagged human IL2Rα; not shown: Fc
T3 sequence (looked up): T1 sequence (looked up)

T4: human IL2Rβ (human, UniProt P14784 27-239)
T4 construct: also called IL2β; CD122
T4 sequence (looked up): T2 sequence (looked up)

B1: EP100 (ligand)
chain: APTSSSTKKTQLQLEHLLLDLQMILNGINNYKNPVLTRMLTIKFYMPKKATELKHLQCLEEELKPLEEVLNLAQSKNFHLRPRDLISNINVIVLELKGSETTFMCEYADETATIVEFLNRWITFSQSIISTLT
B2: EP101 (ligand)
chain: B1 chain with V35K, I42L, Y45P
B3: EP102 (ligand, not shown: small tags and cut ends)
chain: B1 chain with V35D, R38S, T41A, I42F
B4: EP110 (ligand)
chain: B1 chain with V35L, R38D, I42R, S125C
notes: not shown: His and Flag tags
B5: EP117 (ligand)
chain: B1 chain with V35K, R38Y, I42F, Y45S
B6: EP120 (ligand)
chain: B1 chain with V35K, R38V, I42F, Y45T
B7: EP125 (ligand)
chain: B1 chain with V35K, R38N, I42F, Y45A
B8: EP347 (ligand)
chain: B1 chain with V35K, R38V, I42F, Y45S, R81T, L85A, S87D, N90R, L94Q, S125C
notes: not shown: His and Flag tags
B9: EP350 (ligand)
chain: B1 chain with V35K, I42A, R81T, P82A, L85A, V93I, L94Q, S125C
notes: not shown: His and Flag tags
B10: EP243 (ligand)
chain: B1 chain with V35K, I42F, L85A, S87D, N90R, V93I, L94Q, S125C
notes: not shown: His and Flag tags
B11: EP244 (ligand)
chain: B1 chain with V35K, I42F, P82A, S87D, N90R, V93I, L94Q, S125C
notes: not shown: His and Flag tags
B12: EP245 (ligand)
chain: B1 chain with V35K, I42F, P82A, L85A, N90R, V93I, L94Q, S125C
notes: not shown: His and Flag tags
B13: EP246 (ligand)
chain: B1 chain with V35K, I42F, P82A, L85A, S87D, V93I, L94Q, S125C
notes: not shown: His and Flag tags
B14: EP248 (ligand)
chain: B1 chain with V35K, I42F, P82A, L85A, S87D, N90R, V93I, S125C
notes: not shown: His and Flag tags
B15: EP249 (ligand)
chain: B1 chain with V35K, I42F, R81T, S87D, N90R, V93I, L94Q, S125C
notes: not shown: His and Flag tags
B16: EP250 (ligand)
chain: B1 chain with V35K, I42F, R81T, L85A, N90R, V93I, L94Q, S125C
notes: not shown: His and Flag tags
B17: EP251 (ligand)
chain: B1 chain with V35K, I42F, R81T, L85A, S87D, V93I, L94Q, S125C
notes: not shown: His and Flag tags
B18: EP257 (ligand)
chain: B1 chain with V35K, I42F, R81T, P82A, S87D, N90R, V93I, S125C
notes: not shown: His and Flag tags
B19: EP007 (ligand)
chain: APTSSSTKKTQLQLEHLLLDLQMILNGINNYKNPKLTRMLTFKFYMPKKATELKHLQCLEEELKPLEEVLNLAQSKNFHLKWGDAVSNARVLAGALKGSETTFMCEYADETATIVEFLNRWITFCQSIISTLT
notes: not shown: C-terminal Flag and 6xHis tags

Molecular target: T1, human IL2Rα
Assay: SPR, IL2Rα captured on Protein A chip, IL2 at 100 nM
Description: The binding kinetics of IL2Rα-reduced binding clones to IL2Rα was assessed utilizing SPR technology with a Biacore T200, software version 2.0. For each cycle, 1 ug/mL of human IL2Rα was captured for 60 seconds at a flow rate of 10 uL/min on flow cell 2 in 1×HBSP buffer on a Protein A sensor chip. 100 nM of each HIS and Flag tag purified IL2 mutant was injected onto both the reference flow cell 1 and IL2Rα captured flow cell 2 for 150 seconds at a flow rate of 30 uL/min followed by washing for 300 seconds. The flow cells were then regenerated with Glycine pH 2.0 for 60 seconds at a flow rate of 30 uL/min. A HBSP+ buffer was included with each sample as a baseline control. The assay was set up in a 96-well format. The kinetics data was analyzed with Biacore T200 evaluation software 3.0. The specific binding response unit was derived from subtraction of binding to reference flow cell 1 from IL2Rα flow cell 2 and subtraction of buffer control. […] Relative response (RU) was determined for each IL2Rα-reduced binding clone (FIG. 4, Table 3).

| Binder | RU (at 100 nM) | Relevant binding to WT IL2 (%) |
| --- | --- | --- |
| B1 | 1.7 RU | 1.19% |
| B2 | 2.5 RU | 1.76% |
| B3 | 2.7 RU | 1.9% |
| B4 | 2.6 RU | 1.83% |
| B5 | 2.5 RU | 1.76% |
| B6 | 3.6 RU | 2.54% |
| B7 | 6.1 RU | 4.29% |

Molecular target: T2, human IL2Rβ Fc fusion protein
Assay: ELISA, Fc-tagged receptor coated, anti-HisTag-HRP
Description: Recombinant Fc-tagged human IL2Rα and IL2Rβ were added in 25 uL of 1×PBS to wells of 384-well plate and incubated overnight at 4° C. to coat the plates. Plates were washed three times with 0.05% Tween20/1×PBS. Plates were blocked with 100 uL of SuperBlock for 1 hr at RT and then washed 3 times with 0.05% Tween20/1×PBS. IL2 mutants were diluted in 0.05% Tween 20/1×PBS from 1000 nM to 0 nM and added to plates for 2 hrs at room temperature. Plates were then washed 6 times with 0.05% Tween20/1×PBS. Anti-HisTag-HRP was diluted 1:5000 in 0.05% Tween20/1×PBS and added to plates for 1 hr at RT. Plates were then washed 6 times with 0.05% Tween 20/1×PBS, and TMB was added to develop blue color. Reactions were stopped with 2N […] and light absorbance at 450 nm was read on a BioTek plate reader.

| Binder | EC50 |
| --- | --- |
| B8 | 77.6 nM |
| B9 | 39.9 nM |

Molecular target: T3, human IL2Rα Fc fusion protein
Assay: ELISA, receptor-Fc coated, anti-Flag HRP
Description: (§1) Briefly, 384 well plate was immobilized with human IL2Rα and IL2Rβ Fc fusion proteins at a final concentration of 2 ug/mL in 1×PBS in total volume of 25 uL per well. The plate was incubated overnight at 4 C and blocked with 80 uL of superblock per well for 1 hour. […] Each dilution was added to IL2Rα or IL2Rβ wells in parallel in duplicates. The IL2 mutant binding was detected by adding 25 uL of anti-Flag HRP diluted at 1:5000 in 1×PBST. In between each step, the plate was washed three times with 1×PBST using a plate washer. The plate was then developed with 25 uL of TMB substrate for five minutes and stopped by adding 25 ul of 2N sulfuric acid. The plate was read at OD450 nm Biotek plate reader and the EC50 was analyzed with Prism 8.1 software to generate EC50 values (FIG. 15A for IL2Rα, and FIG. 15B for IL2Rβ, summarized in Table 9).

| Binder | EC50 |
| --- | --- |
| B10 | 6.7 nM |
| B11 | 10.2 nM |
| B12 | 4.8 nM |
| B13 | 7 nM |
| B14 | 13.4 nM |
| B15 | 20.2 nM |
| B16 | 13.2 nM |
| B17 | 16.8 nM |
| B18 | 5.6 nM |

Molecular target: T2, human IL2Rβ Fc fusion protein
Assay: ELISA, receptor-Fc coated, anti-Flag HRP
Description: as §1

| Binder | EC50 |
| --- | --- |
| B10 | 217 nM |
| B11 | 2830 nM |
| B12 | 123 nM |
| B13 | 269 nM |
| B14 | 188 nM |
| B15 | 576 nM |
| B16 | 23.4 nM |
| B17 | 2.5 nM |

Molecular target: T4, human IL2Rβ
Assay: SPR, receptor captured on Protein A chip, E. coli-produced IL2
Description: The assay was run with Biacore T200 control software version 2.0. For each cycle, 1 μg/mL of human IL2Rβ or IL2Rα was captured for 60 seconds at flow rate of 10 μL/min on flow cell 2 in 1×HBST buffer on Protein A sensor chip. Two-fold serial diluted HIS tag purified engineered IL2 mutant was injected onto both reference flow cell 1 and IL2Rβ or IL2Rα captured flow cell 2 for 150 seconds at flow rate of 30 μL/min followed by washing for 300 seconds. The flow cells were then regenerated with Glycine pH 2 for 40 seconds at a flow rate of 30 μL/mins. Eight concentration points from 0 to 100 nM were assayed for each IL2Rβ agonist clone 96-well plate format. The kinetics data was analyzed with Biacore T200 evaluation software 3000. The specific binding response unit was derived from subtraction of binding to reference flow cell 1 from target flow cell 2.

| Binder | Kd | koff | kon | relative activity IL2Rβ (KD: fold) against WT IL2 |
| --- | --- | --- | --- | --- |
| B19 | 0.37 nM | 0.000263 s⁻¹ | 709000 M⁻¹ s⁻¹ | 11700 fold |
